T1: Myo5 SH3 (MYO5_YEAST), Q04439
T1 chain: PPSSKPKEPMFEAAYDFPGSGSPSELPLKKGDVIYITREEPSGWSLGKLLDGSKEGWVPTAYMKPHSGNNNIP


Target: T1, Myo5 SH3 (MYO5_YEAST), Q04439
Assay: SPOT array

Binder	normalised SPOT signal, Boehringer light units (BLU); mean over the file's lines of this peptide
YEKALHFPAGPKST [YFL042C 472-485]	147
VLGVLNVPLPPQTR [YGL197W 857-870]	233
VFSSLRDPVIPIKL [YGL195W 2560-2573]	132
VLFNLDHPMVPENL [YAL018C 292-305]	220
YLPHMSRPLGPDEV [YMR131C 97-110]	172
VPDQLLTPLQPYTI [YJL127C 32-45]	168
YEQTMKSPKYPSTY [YDR314C 535-548]	138
YFKELPPPSDPSSI [YDL108W 289-302]	165
VEVIMHSPSDPEYA [YML117W 995-1008]	150
YLLELPDPLIPNDV [YFL047W 564-577]	163
TPYQLLSPILPVLL [YBR136W 679-692]	287
VLIKFVIPVYPSLP [YGR099W 37-50]	562
VLKGFYSPSAPSYD [YOR029W 22-35]	290
VLKTLAFPINPSDI [YBR026C 53-66]	156
YEVTFDGPNDPLHP [YLL028W 124-137]	111
YEGRFWNPENPYKF [YEL011W 167-180]	163
VPLPFGIPPFPMFP [YKL059C 406-419]	11600
VPPNFNAPPNPMAF [YNL118C 392-405]	1570
VEPEWYLPILPMIL [YNL088W 813-826]	236
YPAKLRIPETPVKK [YJL187C 187-200]	220

Binder	normalised SPOT signal, Boehringer light units (BLU); mean over the file's lines of this peptide
VPNRWATPLDPSIL [YAL015C 71-84]	126
YLNNLAEPLIPLSL [YDR389W 216-229]	222
TPTPHPHPHTPHPH [YHR217C 42-55]	158
VELHFPKPEDPASI [YMR246W 254-267]	14.9
VLKNLPTPGEPFNF [YML131W 8-21]	148
VPIIFEIPFNPIYK [YKL205W 1001-1014]	215
VFLRLISPTRPSLE [YOR249C 40-53]	1640
VLLPLRLPEIPPKG [YFL036W 1323-1336]	1070
VAGYFVIPHTPMPS [YOR378W 217-230]	180
WLLPYSLPMHPGRW [YHR072W 218-231]	706
VLSKFIKPKNPSLV [YPL226W 187-200]	320
TPTHHHIPHIPNQN [YPR065W 331-344]	148
VPDSYKPPKNPIVF [YDR058C 17-30]	829
VPAILMTPISPRSL [YPL188W 282-295]	138
VAPGLWFPNSPPPL [YPL128C 101-114]	4830
WLSKLVLPPPPVSI [YHR021W-A 81-94]	4130
YFKNMSNPKIPATK [YIL125W 74-87]	128
YPEKFQKPYNPLAM [YJR059W 450-463]	157
VPSAFTAPPVPTKK [YDR517W 312-325]	358
YASQYSRPDGPILL [YGR088W 39-52]	114

Binder	normalised SPOT signal, Boehringer light units (BLU); mean over the file's lines of this peptide
YLNSLSEPLVPLAL [YOR134W 141-154]	132
TPSNMGSPGSPVNV [YOL148C 21-34]	156
VAVPFTLPVIPYDL [YBR223C 517-530]	240
TPPPPPLPSVLSS [YNL271C 1302-1314]	25800
YLTEFSRPIPPTPS [YPL009C 61-74]	169
VAKSYGFPVPPKVN [YMR290C 473-486]	259
TWKMHLWPVSPPQL [YLR039C 34-47]	224
VPGEHFAPMGPNGQ [YHR098C 250-263]	64.7
YENSHSLPLDPQSP [YLR416C 105-118]	122
VAWSHDSPKPPSDR [YHR163W 199-212]	30.6
VFGTYLGPDAPLSK [YMR272C 367-380]	130
VPGGMSIPGAPQGA [YPL169C 514-527]	140
VARPLSVPGSPRDL [YLR258W 646-659]	186
VFKFLFHPVTPSHF [YJL005W 768-781]	565
YEADYVIPVLPGSH [YNL262W 2031-2044]	125
VFSLMNSPAYPDVQ [YIL001W 264-277]	153
VLEAYNVPTPPRLE [YLR410W 284-297]	57.4
VLTKMNAPQKPEDI [YCR004C 46-59]	296

— publication PMC314469, “Protein Interaction Networks by Proteome Peptide Scanning” (PLoS Biology, 2004)
